Experimental data: PMC2756588

T1: Hof1, Q05080
T1 sequence (Q05080 590-669, looked up): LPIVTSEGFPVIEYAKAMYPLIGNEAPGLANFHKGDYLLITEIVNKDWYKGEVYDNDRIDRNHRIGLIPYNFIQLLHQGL

T2: Cdc25, P04821
T2 sequence (P04821 50-136, looked up): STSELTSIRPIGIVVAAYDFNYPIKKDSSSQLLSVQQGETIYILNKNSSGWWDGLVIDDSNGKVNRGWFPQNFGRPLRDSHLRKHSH

T3: Lsb3, P43603
T3 sequence (P43603 385-451, looked up): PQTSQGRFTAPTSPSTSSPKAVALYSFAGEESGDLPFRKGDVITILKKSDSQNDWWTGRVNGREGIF

T4: Fus1, P11710
T4 sequence (P11710 432-512, looked up): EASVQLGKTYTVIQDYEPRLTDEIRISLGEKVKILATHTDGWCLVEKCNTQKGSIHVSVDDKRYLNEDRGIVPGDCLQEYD

T5: Bbc1, P47068
T5 sequence (P47068 1-78, looked up): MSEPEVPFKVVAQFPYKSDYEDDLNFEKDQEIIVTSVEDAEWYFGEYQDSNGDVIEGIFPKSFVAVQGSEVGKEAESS

T6: Pin3, Q06449
T6 sequence (Q06449 53-122, looked up): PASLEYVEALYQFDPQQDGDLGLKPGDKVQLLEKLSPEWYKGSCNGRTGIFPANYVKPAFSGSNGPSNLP

T7: Sla1-3, P32790
T7 sequence (P32790 344-424, looked up): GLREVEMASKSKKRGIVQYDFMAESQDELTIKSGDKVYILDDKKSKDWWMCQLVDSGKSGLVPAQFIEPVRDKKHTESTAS

T8: Lsb1, P53281
T8 sequence (P53281 45-122, looked up): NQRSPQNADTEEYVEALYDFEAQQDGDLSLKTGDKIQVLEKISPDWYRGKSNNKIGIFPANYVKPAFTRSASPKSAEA

T9: Myo5, Q04439
T9 sequence (Q04439 1072-1160, looked up): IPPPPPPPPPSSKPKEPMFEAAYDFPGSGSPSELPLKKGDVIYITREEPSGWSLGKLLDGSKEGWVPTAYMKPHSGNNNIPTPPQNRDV

T10: Sla1-2, P32790
T10 sequence (P32790 60-140, looked up): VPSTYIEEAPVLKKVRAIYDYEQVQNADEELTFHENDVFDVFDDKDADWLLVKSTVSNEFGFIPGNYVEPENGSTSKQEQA

T11: Bud14, P27637
T11 sequence (P27637 247-328, looked up): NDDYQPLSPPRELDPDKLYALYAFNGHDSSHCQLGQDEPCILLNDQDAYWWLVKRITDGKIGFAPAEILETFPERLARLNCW

T12: Abp1, P15891
T12 sequence (P15891 535-592, looked up): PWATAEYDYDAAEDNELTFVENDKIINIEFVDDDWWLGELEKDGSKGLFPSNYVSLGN

T13: Boi1, P38041
T13 sequence (P38041 1-86, looked up): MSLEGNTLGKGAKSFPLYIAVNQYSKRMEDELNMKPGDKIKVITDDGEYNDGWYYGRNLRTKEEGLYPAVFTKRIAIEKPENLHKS

T14: Cyk3, Q07533
T14 sequence (Q07533 1-83, looked up): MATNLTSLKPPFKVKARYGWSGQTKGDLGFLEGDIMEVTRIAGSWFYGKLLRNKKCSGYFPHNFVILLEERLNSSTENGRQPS

T15: Bzz1-1, P38822
T15 sequence (P38822 478-572, looked up): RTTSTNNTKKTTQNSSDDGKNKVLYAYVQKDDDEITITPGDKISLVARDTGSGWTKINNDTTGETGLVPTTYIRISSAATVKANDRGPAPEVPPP

T16: Hse1, P38753
T16 sequence (P38753 208-285, looked up): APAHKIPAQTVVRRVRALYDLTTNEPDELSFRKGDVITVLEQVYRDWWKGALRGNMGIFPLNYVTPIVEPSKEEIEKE

T17: Pex13, P80667
T17 sequence (P80667 295-386, looked up): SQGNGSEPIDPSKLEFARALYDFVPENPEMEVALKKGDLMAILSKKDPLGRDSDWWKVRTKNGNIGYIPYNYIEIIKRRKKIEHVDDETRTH

T18: Lsb4, P32793
T18 sequence (P32793 402-468, looked up): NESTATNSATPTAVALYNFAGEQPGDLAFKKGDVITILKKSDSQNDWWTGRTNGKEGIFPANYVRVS

T19: Boi2, P39969
T19 sequence (P39969 32-116, looked up): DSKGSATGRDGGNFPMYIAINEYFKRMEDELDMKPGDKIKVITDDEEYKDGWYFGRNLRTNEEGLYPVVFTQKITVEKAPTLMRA

T20: Nbp2, Q12163
T20 sequence (Q12163 103-180, looked up): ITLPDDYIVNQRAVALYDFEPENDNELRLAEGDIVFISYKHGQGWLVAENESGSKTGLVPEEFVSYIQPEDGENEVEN

T21: Bzz1-2, P38822
T21 sequence (P38822 568-633, looked up): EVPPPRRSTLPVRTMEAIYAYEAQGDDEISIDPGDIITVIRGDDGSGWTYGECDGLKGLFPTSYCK


Columns and labels:
Test in all cases: SPOT array
Hof1, Q05080 = target: T1, Hof1, Q05080; details: median of control spots 4086
Cdc25, P04821 = target: T2, Cdc25, P04821; details: median of control spots 969
Lsb3, P43603 = target: T3, Lsb3, P43603; details: median of control spots 406
Fus1, P11710 = target: T4, Fus1, P11710; details: median of control spots 1200
Bbc1, P47068 = target: T5, Bbc1, P47068; details: median of control spots 796
Pin3, Q06449 = target: T6, Pin3, Q06449; details: median of control spots 2171
Sla1-3, P32790 = target: T7, Sla1-3, P32790; details: median of control spots 5475
Lsb1, P53281 = target: T8, Lsb1, P53281; details: median of control spots 388
Myo3, P36006 = details: median of control spots 468
Myo5, Q04439 = target: T9, Myo5, Q04439; details: median of control spots 471
Sla1-2, P32790 = target: T10, Sla1-2, P32790; details: median of control spots 712
Bud14, P27637 = target: T11, Bud14, P27637; details: median of control spots 956
Rvs167, P39743 = details: median of control spots 2707
Sequence of Rvs167, P39743 (P39743 419-482): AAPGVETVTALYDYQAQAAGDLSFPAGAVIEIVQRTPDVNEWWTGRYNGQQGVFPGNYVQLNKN

Abp1, P15891 = target: T12, Abp1, P15891; details: median of control spots 935
Boi1, P38041 = target: T13, Boi1, P38041; details: median of control spots 1162
Cyk3, Q07533 = target: T14, Cyk3, Q07533; details: median of control spots 1451
Bzz1-1, P38822 = target: T15, Bzz1-1, P38822; details: median of control spots 4446
Hse1, P38753 = target: T16, Hse1, P38753; details: median of control spots 1727
Bem1-2, P29366 = details: median of control spots 4347
Sequence of Bem1-2, P29366 (P29366 139-227): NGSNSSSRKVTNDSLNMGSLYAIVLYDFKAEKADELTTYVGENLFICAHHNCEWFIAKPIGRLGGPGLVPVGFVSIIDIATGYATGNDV

Pex13, P80667 = target: T17, Pex13, P80667; details: median of control spots 1341
GST = details: median of control spots 978
Sho1, P40073 = details: median of control spots 1148
Sequence of Sho1, P40073 (P40073 287-367): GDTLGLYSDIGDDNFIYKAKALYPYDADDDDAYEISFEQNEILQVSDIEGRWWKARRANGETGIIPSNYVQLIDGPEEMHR

Lsb4, P32793 = target: T18, Lsb4, P32793; details: median of control spots 397
Boi2, P39969 = target: T19, Boi2, P39969; details: median of control spots 1161
Bem1-1, P29366 = details: median of control spots 4282
Sequence of Bem1-1, P29366 (P29366 55-141): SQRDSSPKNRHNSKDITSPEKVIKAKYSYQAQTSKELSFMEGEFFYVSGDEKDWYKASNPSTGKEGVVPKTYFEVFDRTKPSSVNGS

Nbp2, Q12163 = target: T20, Nbp2, Q12163; details: median of control spots 357
Bzz1-2, P38822 = target: T21, Bzz1-2, P38822; details: median of control spots 4538

Binder | SPOT intensity (Hof1, Q05080) | SPOT intensity (Cdc25, P04821) | SPOT intensity (Lsb3, P43603) | SPOT intensity (Fus1, P11710) | SPOT intensity (Bbc1, P47068) | SPOT intensity (Pin3, Q06449) | SPOT intensity (Sla1-3, P32790) | SPOT intensity (Lsb1, P53281) | SPOT intensity (Myo3, P36006) | SPOT intensity (Myo5, Q04439) | SPOT intensity (Sla1-2, P32790) | SPOT intensity (Bud14, P27637) | SPOT intensity (Rvs167, P39743) | SPOT intensity (Abp1, P15891) | SPOT intensity (Boi1, P38041) | SPOT intensity (Cyk3, Q07533) | SPOT intensity (Bzz1-1, P38822) | SPOT intensity (Hse1, P38753) | SPOT intensity (Bem1-2, P29366) | SPOT intensity (Pex13, P80667) | also measured
KTKQQKPAIPQKKSF | 0 | 3 | 4 | 0 | 1 | 3 | 0 | 0 | 2 | 1 | 0 | 0 | 4 | 617 | 0 | 0 | 0 | 6 | 5 | 5 | SPOT intensity (GST): 1; SPOT intensity (Sho1, P40073): 38; SPOT intensity (Lsb4, P32793): 2; SPOT intensity (Boi2, P39969): 0; SPOT intensity (Bem1-1, P29366): 0; SPOT intensity (Nbp2, Q12163): 0; SPOT intensity (Bzz1-2, P38822): 9
NLKKRPPTAPQRKIS | 28 | 203 | 45 | 8 | 31 | 7 | 161 | 8 | 20 | 3 | 3 | 25 | 18 | 564 | 15 | 2 | 22 | 157 | 51 | 13 | SPOT intensity (GST): 2; SPOT intensity (Sho1, P40073): 229; SPOT intensity (Lsb4, P32793): 141; SPOT intensity (Boi2, P39969): 0; SPOT intensity (Bem1-1, P29366): 0; SPOT intensity (Nbp2, Q12163): 48; SPOT intensity (Bzz1-2, P38822): 324
MTKTPETSPPKRPMG | 16 | 2 | 34 | 0 | 0 | 24 | 0 | 3 | 455 | 499 | 2 | 0 | 0 | 75 | 0 | 0 | 3 | 0 | 3 | 8 | SPOT intensity (GST): 0; SPOT intensity (Sho1, P40073): 5; SPOT intensity (Lsb4, P32793): 36; SPOT intensity (Boi2, P39969): 0; SPOT intensity (Bem1-1, P29366): 0; SPOT intensity (Nbp2, Q12163): 0; SPOT intensity (Bzz1-2, P38822): 4
AAHKTKPSIPPKKVE | 0 | 0 | 0 | 1 | 0 | 0 | 0 | 0 | 0 | 0 | 0 | 0 | 0 | 239 | 0 | 0 | 0 | 0 | 0 | 2 | SPOT intensity (GST): 0; SPOT intensity (Sho1, P40073): 4; SPOT intensity (Lsb4, P32793): 0; SPOT intensity (Boi2, P39969): 1; SPOT intensity (Bem1-1, P29366): 0; SPOT intensity (Nbp2, Q12163): 0; SPOT intensity (Bzz1-2, P38822): 0
